Patent publication US20250296971A1, “GASTRIC INHIBITORY PEPTIDE RECEPTOR LIGANDS” (priority 2021, published 2025)
Each block holds one binder with its values, some of them ahead of it. *1 amine or outer side, *2 acyl side, *3 side chain or, on linkers, in order; H or OH if unused. Bridges are numbered along the chain shown (N, C = ends). Primed or numbered codes have the meaning given here. [ ]: non-standard residue; d: D form. The star is where a group is joined. Ttds = 1,13-diamino-4,7,10-trioxatridecan-succinamic acid, NCCCOCCOCCOCCCNC(=O)CCC(=O)*; 2,6‑lutidylidene = 2Lut, Cys-Cys crosslink via 2,6-lutidylidene; tMeBn(DOTA-PP) = mesitylene bridge bearing DOTA via piperazine; dE(AGLU) = D-glutamic acid bearing 1-amino-1-deoxy-D-glucitol; MeO36PEG = monodisperse PEG 36 units conjugated with acetyl; Pro(trans-4-NH2) = O=C([C@@H]1C[C@@H](N[*:3])CN1[*:1])[*:2]; DOTA = O=C(O)CN1CCN(CC(=O)O)CCN(CC(=O)*)CCN(CC(=O)O)CC1; Trp(5-Cl) = N[C@@H](Cc1c[nH]c2ccc(Cl)cc12)C(=O)O; Phe(3,5-Cl2) = N[C@@H](Cc1cc(Cl)cc(Cl)c1)C(=O)O; Pyridine(2,6-diCH2) = c1cc(C[*:1])nc(C[*:2])c1; 2Lut″ = 2,6-lutidylidene linking two thiols; APAc = 4-amino-1-carboxymethylpiperidine; Phe(2-Cl) = N[C@@H](Cc1ccccc1Cl)C(=O)O; 1Nal = N[C@@H](Cc1cccc2ccccc12)C(=O)O; mXylylene = c1cc(C[*:1])cc(C[*:2])c1; Glutaryl = O=C(CCCC(=O)[*:2])[*:1]; AGLU = 1-amino-1-deoxy-D-glucitol; Hyp = O=C(O)[C@@H]1C[C@@H](O)CN1; hLeu = CC(C)CC[C@H](N)C(=O)O; 2Lut(3) = 2,6-lutidylidene; dDab = NCC[C@@H](N)C(=O)O; hCys = N[C@@H](CCS)C(=O)O; Api = NC1(C(=O)O)CCNCC1; Thp = NC1(C(=O)O)CCOCC1; Aib = CC(C)(N)C(=O)O

Tests used:
[1] = target: human Gastric Inhibitory Peptide Receptor (GIPR) (human) (UniProt P48546); assay: FACS competition vs biotinylated GIP-057 on CHO-K1-hGIPR cells; category B: pIC50 7.1-8.0
Sequence of human Gastric Inhibitory Peptide Receptor (GIPR) (human) (P48546 22-466 limits assumed): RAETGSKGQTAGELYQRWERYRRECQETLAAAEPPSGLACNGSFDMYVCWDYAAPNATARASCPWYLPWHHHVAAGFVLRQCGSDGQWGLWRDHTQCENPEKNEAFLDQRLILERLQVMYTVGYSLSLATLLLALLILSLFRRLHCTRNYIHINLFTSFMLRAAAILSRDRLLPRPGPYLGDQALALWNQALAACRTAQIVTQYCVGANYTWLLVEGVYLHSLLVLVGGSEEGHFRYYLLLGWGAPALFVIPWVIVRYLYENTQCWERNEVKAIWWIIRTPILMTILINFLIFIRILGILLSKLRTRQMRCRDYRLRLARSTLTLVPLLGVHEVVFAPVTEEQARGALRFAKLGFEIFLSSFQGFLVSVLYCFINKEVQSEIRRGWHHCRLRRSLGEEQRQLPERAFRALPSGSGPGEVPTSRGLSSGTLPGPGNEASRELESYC

[2] = target: human Gastric Inhibitory Peptide Receptor (human) (UniProt P48546); assay: FACS competition with GIP-057 on CHO-K1-hGIPR cells; pIC50 category B: 7.1-8.0
Sequence of human Gastric Inhibitory Peptide Receptor (human) (P48546 22-466 limits assumed): as above

pIC50 [1]: 7.1 to 8 pic50
B1: Ac-Asp-Trp-5Clw-Hyp-Glu-leu-[Cys(2Lut)-Thp-Leu-Phe-Cys]-NH2 (peptide)
peptide: Ac-DW[Trp(5-Cl)][Hyp]E[dL]C[Thp]LFC-NH2
modifications: linker 7-11 via Pyridine(2,6-diCH2)
SMILES: CC(=O)N[C@@H](CC(=O)O)C(=O)N[C@@H](Cc1c[nH]c2ccccc12)C(=O)N[C@@H](Cc1c[nH]c2ccc(Cl)cc12)C(=O)N1C[C@H](O)C[C@H]1C(=O)N[C@@H](CCC(=O)O)C(=O)N[C@H](CC(C)C)C(=O)N[C@H]1CSCc2cccc(n2)CSC[C@@H](C(N)=O)NC(=O)[C@H](Cc2ccccc2)NC(=O)[C@H](CC(C)C)NC(=O)C2(CCOCC2)NC1=O

pIC50 [1]: 7.1 to 8 pic50
Binder: Ac-DW[Trp(5-Cl)][Pro(trans-4-NH2)](DOTA)E[dL]C[Thp]LFC-NH2 (linker 7-11 via 2Lut″) [Ac-Asp-Trp-5Clw-Tap(DOTA)-Glu-leu-[Cys(2Lut)-Thp-Leu-Phe-Cys]-NH2]

pIC50 [1]: 7.1 to 8 pic50
Binder: Ac-DW[Phe(3,5-Cl2)][Hyp]E[dL]C[Thp]LIC-NH2 (linker 7-11 via 2Lut″) [Ac-Asp-Trp-Egn-Hyp-Glu-leu-[Cys(2Lut)-Thp-Leu-Ile-Cys]-NH2]

pIC50 [1]: 7.1 to 8 pic50
Binder: Ac-D[Phe(2-Cl)][Trp(5-Cl)][Pro(trans-4-NH2)](DOTA)E[dL]C[Thp]LIC-NH2 (linker 7-11 via Pyridine(2,6-diCH2)) [Ac-Asp-Ocf-5Clw-Tap(DOTA)-Glu-leu-[Cys(2Lut)-Thp-Leu-Ile-Cys]-NH2]

pIC50 [1]: 7.1 to 8 pic50
Binder: Ac-DW[1Nal][Pro(trans-4-NH2)](DOTA)E[hLeu]C[Aib]LIC-NH2 (linker 7-11 via mXylylene) [Ac-Asp-Trp-1Ni-Tap(DOTA)-Glu-Hle-[Cys(3MeBn)-Aib-Leu-Ile-Cys]-NH2]

pIC50 [1]: 7.1 to 8 pic50
Binder: Ac-DW[Trp(5-Cl)][Hyp]P[dL]C[Thp]LIC-NH2 (linker 7-11 via Pyridine(2,6-diCH2)) [Ac-Asp-Trp-5Clw-Hyp-Pro-leu-[Cys(2Lut)-Thp-Leu-Ile-Cys]-NH2]

pIC50 [1]: 7.1 to 8 pic50
Binder: Ac-D[Phe(2-Cl)][Trp(5-Cl)][Hyp]E[dL]C[Api](DOTA)LIC-NH2 (linker 7-11 via Pyridine(2,6-diCH2)) [Ac-Asp-Ocf-5Clw-Hyp-Glu-leu-[Cys(2Lut)-Apc(DOTA)-Leu-Ile-Cys]-NH2]

pIC50 [2]: 7.1 to 8 pic50
Binder: {AGLU-Glutaryl}-DW[Trp(5-Cl)][Pro(trans-4-NH2)]E[dL]C[dK](DOTA)LIC-{APAc-dE(AGLU)-NH2} (linker 7-11 via Pyridine(2,6-diCH2)) [AGLU-Glutar-Asp-Trp-5Clw-Tap-Glu-leu-[Cys(2Lut)-lys(DOTA)-Leu-Ile-Cys]-APAc-glu(AGLU)-NH2]

pIC50 [2]: 7.1 to 8 pic50
Binder: {AGLU-Glutaryl}-DW[Trp(5-Cl)][Pro(trans-4-NH2)]E[dL]C[dDab](DOTA)LIC-{APAc-dE(AGLU)-NH2} (linker 7-11 via 2,6‑lutidylidene) [AGLU-Glutar-Asp-Trp-5Clw-Tap-Glu-leu-[Cys(2Lut)-dab(DOTA)-Leu-Ile-Cys]-APAc-glu(AGLU)-NH2]

pIC50 [2]: 7.1 to 8 pic50
Binder: {MeO36PEG-APAc}-DW[Trp(5-Cl)][Pro(trans-4-NH2)]E[dL]C[Api](DOTA)LIC-{APAc-dE(AGLU)-NH2} (linker 7-11 via Pyridine(2,6-diCH2)) [MeO36PEG-APAc-Asp-Trp-5Clw-Tap-Glu-leu-[Cys(2Lut)-Apc(DOTA)-Leu-Ile-Cys]-APAc-glu(AGLU)-NH2]

pIC50 [2]: 7.1 to 8 pic50
Binder: {MeO36PEG-APAc}-DW[Trp(5-Cl)][Hyp]E[dL]C[Api](DOTA)LIC-{APAc-dE(AGLU)-NH2} (linker 7-11 via Pyridine(2,6-diCH2)) [MeO36PEG-APAc-Asp-Trp-5Clw-Hyp-Glu-leu-[Cys(2Lut)-Apc(DOTA)-Leu-Ile-Cys]-APAc-glu(AGLU)-NH2]

pIC50 [1]: 7.1 to 8 pic50
Binder: Ac-DW[Trp(5-Cl)][Hyp]W[dL]C[Thp]LIC-NH2 (linker 7-11 via Pyridine(2,6-diCH2)) [Ac-Asp-Trp-5Clw-Hyp-Trp-leu-[Cys(2Lut)-Thp-Leu-Ile-Cys]-NH2]

pIC50 [1]: 7.1 to 8 pic50
Binder: {DOTA-Ttds}-D[Phe(2-Cl)][Trp(5-Cl)][Hyp]E[dL]C[Thp]LIC-NH2 (linker 7-11 via 2Lut(3)) [DOTA-Ttds-Asp-Ocf-5Clw-Hyp-Glu-leu-[Cys(2Lut)-Thp-Leu-Ile-Cys]-NH2]

pIC50 [1]: 7.1 to 8 pic50
Binder: {DOTA-Ttds}-DW[Trp(5-Cl)][Hyp]E[dL]C[Thp]LFC-NH2 (linker 7-11 via 2Lut(3)) [DOTA-Ttds-Asp-Trp-5Clw-Hyp-Glu-leu-[Cys(2Lut)-Thp-Leu-Phe-Cys]-NH2]

pIC50 [2]: 7.1 to 8 pic50
Binder: Ac-DW[Trp(5-Cl)][Hyp]E[dL]C[Thp]LIC-NH2 (linker 7-11 via tMeBn(DOTA-PP)) [Ac-Asp-Trp-5Clw-Hyp-Glu-leu-[Cys(tMeBn(DOTA-PP))-Thp-Leu-Ile-Cys]-NH2]

pIC50 [1]: 7.1 to 8 pic50
Binder: Ac-DW[Trp(5-Cl)][Hyp]E[dL][hCys][Thp]LI[hCys]-NH2 (disulfide 7-11) [Ac-Asp-Trp-5Clw-Hyp-Glu-leu-[Hcy-Thp-Leu-Ile-Hcy]-NH2]

pIC50 [2]: 7.1 to 8 pic50
Binder: {AGLU-Glutaryl}-DW[Trp(5-Cl)][Pro(trans-4-NH2)]E[dL][dC][Api](DOTA)LIC-{APAc-dE(AGLU)-NH2} (linker 7-11 via Pyridine(2,6-diCH2)) [AGLU-Glutar-Asp-Trp-5Clw-Tap-Glu-leu-[cys(2Lut)-Apc(DOTA)-Leu-Ile-Cys]-APAc-glu(AGLU)-NH2]
